The pKd is −log10 of the Kd, conventionally taken in molar units. A lower pKd goes with a large Kd. Broadly, the koff is the first-order rate constant of dissociation. By kon is commonly meant the second-order rate constant of association. A low value points to slow association.

pKd: −log10 of the molar value.

Consider 1G01 (antibody), for which, in the experiment with N1, the pKd is 9.06, the koff was determined as 4.79e-05 s⁻¹ and the kon was determined as 55100 M⁻¹ s⁻¹. Besides, in the experiment with N9, the pKd was over 12.00, the koff is under 1e-07 s⁻¹ and the kon is 106000 M⁻¹ s⁻¹.

In the experiment with N1, FNI3 (antibody) gave a pKd of over 12.00, a koff of under 1e-07 s⁻¹ and a kon of 39500 M⁻¹ s⁻¹. In addition, in the experiment with N9, the pKd is 11.54, the koff was 9.45e-07 s⁻¹ and the kon was determined as 330000 M⁻¹ s⁻¹.

Consider FNI9 (antibody), for which the pKd with N1 was 10.79; in the experiment with N9 it was over 12.00.

Values taken from patent US20240092876A1 (priority 2020, published 2024).
